The results in this text go back to a protein production outcome set (Wang et al. 2014).

The nature of the data set: label from the status in PepcDB records.
“MNNNDLFQASRRRFLAQLGGLTVAGMLGPSLLTPRRATAAQAATDAVISKEGILTGSHWGAIRATVKDGRFVAAKPFELDKYPSKMIAGLPDHVHNAARIRYPMVRVDWLRKRHLSDTSQRGDNRFVRVSWDEALDMFYEELERVQKTHGPSALLTASGWQSTGMFHNASGMLAKAIALHGNSVGTGGDYSTGAAQVILPRVVGSMEVYEQQTSWPLVLQNSKTIVLWGSDLLKNQQANWWCPDHDVYEYYAQLKAKVAAGEIEVISIDPVVTSTHEYLGREHVKHIAVNPQTDVPLQLALAHTLYSENLYDKNFLANYCVGFEQFLPYLLGEKDGQPKDAAWAEKLTGIDAETIRGLARQMAANRTQIIAGWCVQRMQHGEQWAWMIVVLAAMLGQIGLPGGGFGFGWHYNGAGTPGRKGVILSGFSGSTSIPPVHDNSDYKGYSSTIPIARFIDAILEPGKVINWNGKSVKLPPLKMCIFAGTNPFHRHQQINRIIEGLRKLETVIAIDNQWTSTCRFADIVLPATTQFERNDLDQYGNHSNRGIIAMKQVVPPQFEARNDFDIFRELCRRFNREEAFTEGLDEMGWLKRIWQEGVQQGKGRGVHLPAFDDFWNNKEYVEFDHPQMFVRHQAFREDPDLEPLGTPSGLIEIYSKTIADMNYDDCQGHPMWFEKIERSHGGPGSQKYPLHLQSVHPDFRLHSQLCESETLRQQYTVAGKEPVFINPQDASARGIRNGDVVRVFNARGQVLAGAVVSDRYAPGVARIHEGAWYDPDKGGEPGALCKYGNPNVLTIDIGTSQLAQATSAHTTLVEIEKYNGTVEQVTAFNGPVEMVAQCEYVPASQVKS”: the protein production result is “failed”.

In the case of “ARNAVMVIDGIPVTKSSNTINDALEGVTFNLLKANPGTTTTLTVEKDKSNVEAAVNAFVKAYNDLEKTIGNLSRYDAANKQASVLTGDSTMRMIQNRMRAMLGGNQSAAGGINSLSELGISFQKDGTLALDNNKLSAVLNNPDKNIAAFFTTQGGDDTTSVEGFASRLSELIDGMTRSDGLISSRMDGINSTIKGIGKQREALEFRLESVEKRLRAQFTALDTMIASMNQ”, the protein production entry was “not failed”.

Regarding “MAEKISVKTADTNADEIDLGRLLGTLLDNRWLIIGVTAIFLIFGILYATLATPIYKADALVQVEKNSSNKLINDITSMLPDAKPESAAEVELITSRMIIGKTVNDLALDINVQQNYFPFFGKGIARLTGATKGVLAVSRLEVPDSWKDEPIILTVTDNKNYSISAGDAVRFEGQVGRLERHDGMTLLISDIAADEGTTFSIKKLNQLTAINNILKTLTVADRGKDTGVLALSLEGEDPILTNKILNSISENYLQQNVERKSEESGRSLEFLKEQLPNVRSILDEADNKLNIFRQKNESVDLSLEAKSVLETMVALEAQLNELTFKEAEISKLYTKEHPAYRALLEKRKTLEEEKEKINKRVGAMPKTQQEIIRLTRDVKAGQEVYMQLLNKQQELSINKASTVGNVRIIDSAVVQLRPVKPEKVFIVLLSIILGGLLSVSFVLIRTILHKGIESPEQLAELGISVYASVPLSAWQQKKDRALLGKGKRGNTRSTELLAVGNPADLAIEAIRSLRTSLHFAMMEAKNNVLMISGASPAIGKTFVSANLGAVIAQSGQRVLIVDCDMRKGYAHELMGCQGTDGLSDILSGQITTDKSIRKTAVENMDFIPRGQIPPNPSELLMHSRFSQFIDWATKNYDIVLLDTPPILAVTDAAVISRHAGTSLLVARFEVNTLKEIEVSIRRFEQNGTEIKGVILNAIVKRAASYYSYGNYDYYSYEYKSDK”, the protein production result is on record as “failed”.

“NTAPSLTVPECAICLQTCVHPVSLPCKHVFCYLCVKGASWLGKRCALCRQEIPEDFLD”: the protein production entry is reported as “not failed”.

“DNHGVVHCVESAPAAVSAGKRALSQLVEDQKIVFHTETVERAMNQLPAPTLVVLDPPRVGAGAETVRAIAQSGPQAAIHIGCDPATFARDIAEWSRNGFILEKLRVFDAFPGTHHCETIGLLTKKN”: the protein production entry was “failed”.

On to “LLGELNEWLQSCRSLEELFAMVSRFMEHILPDAEGSLYVYSNSRDVLDGSAGWNGGAFKDHIHPEACWGLRRGRSYEYGASEVDFVCDHAEPHDGRPYFCFPVLAHGETVGLMHLRAQPGAEAEFSASKRLAQMCAEQISMAIANVRMRDQLHDQ”, for which the protein production entry was “failed”.

With “PITFWYGKYIILIPSSYFKSVIDKRLKYIILHEYAHAKNRDTLHLIIFNIFSIIMSYNPLVHIVKRKIIHDNEVEADRFVLNNINKNEFKTYAESIM”, the protein production result is on record as “failed”.

Consider “MVIRGTNNDDNLIGTTGNDIIEGLGGNDRFEGGRGNDTLTGGTGNDVFNLEQQQDNDVVTDFVRGQDKIDLRNLNINDWATLQLLISNDGQDNALITTFFNGSQSQIKLLNINPNLLQASDFIFNTVNLNQTIDGTNFADQLFGGLGNDTLRGFNGNDVLFGEQGDDRFEGGRGNDTFYGGAGNDVFNLEQQQDNDVVTDFVRGQDKIDLRNLNINDWATLQLLISNDGQDNALITTFFNGSQSQIKLLNINPNLLQASDFIFNTVNLNQTIDGTNFADQLFGGLGNDTLRGFFGNDVLFGEQGDDRFEGGRGNDTFYGGAGNDVFNLEQLQDNDVVTDFVRGQDKIDLRNLNINDWATLQLLISNDGQNNALITTFFNGDQSQIKLLNINPNLLQASDFIFNTVNLNQTIDGTNSPDQLFGGLGNDTLRGFFGNDVLFGEQGDDRFEGGRGNDTFYGGAGNDVFNLEQLQDNDVVTDFVQGQDKIDIRNLNINDWATLQLLISNDGQDNALITTFFNGDQSQIKLLNINPNLLQASDFIFNTVNLNQTIDGTNSPDQLFGGLGNDTLRGFFGNDVLFGEQGDDRFEGGRGNDTFYGGAGNDVFNLEQLQDNDVVIDFVQGQDKIDIRSLNISDWATLQLLISNDGQNNALITTFFNGDQSQIKLNNINPNLLQASDFIFNTNTVNLNQTIDGTNSPDQLFGGLGNDTLRGFFGNDVLFGEQGDDRFEGGAGNDTFYGGTGNDIAVYLGTRSQYQVTSNGGVFTVTDTVANRDGVDTLREVEQIQFSDQTITIGNTSPTITLAVSPASVTEDGTPNLIYTFTRTGSTTNALTVNYSVAGTATLNTDYAQTGAASFTATTGTITFAVGASTAILTINPTADTTVESNETVALTLASGTGYTVGTTTAVTGTITNDDFPSITLAVSPASVTEDGTPNLIYTFTRTGSTTNALTINFGVAGTATLNTDYAQSGAASFTATTGTITFAAGASTAILTINPTADTTVESNETVALTLASGTGYTVGTTTAVTGTITNDDTLPTGITINLSGSQTIVEGNSSPQNVTYTVTLSQASSQIITVQYATANGTATAGSDYTSTTGTLTFNPGETSKVINIPILNDSVNEANETFTLRLTSPTNATLGTTNTVTTTITDTLSASVTTTLPTNVENLTLTGTAAINGTGNAGNNILTGNSGNNILSGGAGNDTYAFVANAALGTDTITETATGGIDTIDFNGSTATVRVNLGVTTSQTVNNNLKLILSANNVIENATGGTGNDRLTGNALNNILAGGNGNDQLQGLAGNDTLWGGLGDDILTGGIGQDKYLFQSSGVFSSSLGVDYISQFDVGQDQIVLSKATFNAVTNSAGQALTDFAVVSDDEFVNASSARIVYSQGSGSLFYNRDGNVLGTSTVFEFARLGNPDITLSSSDFSLIA”, for which the protein production entry is given as “failed”.

With “MNIVVQSVYDNTQEFEIIKKWRENYIGINPANGNDFEYWESIREDCSYSFYFYYEDQLVGGVRLTPLGHGITMGERQLDLLRFISVPLETLEVNRLVIEERARGKKIMYESLQYCFHWDSRNTTHSELIALCLPHMVPLYRQVGATMIHDNLQSKEMPEKEYSLISINLKGL”, the protein production result is reported as “failed”.

“MSTRWLLLAAFAAGAALFSSFLKALFFAACLACAFRPLSRRLEAWRGPLVAAGLTTALAGMCLVIPVAVVGSLAAPQAVQGLAVLDGLRESNWFTSPEAQQLVDDIDARLRDLPGLEGGLRGLARNAAGILGTAARTALAGGVGLAGGALNAVLQGFIVLMLIFVFTAYARHIQRFALALLPMPRAMLDRCVTAFRGAVVGVLAGVVLVAAIQGVLCGIGFAVAGVPQAAFWGFIAAMVAPIPVVGTMAVWIPACAWLWFAGKTTAAIGLVLWSAIIVSGSDNILRPIFLKTGIEAPIALIFLAIICGLAAFGPMGLLLGPVLLALGLQLAREGLPGAPGVSGVSGAVEPRE”: the protein production result is recorded as “failed”.

Regarding “MHSMKLLVTGGMGFIGSNFIRYILEKHPDWEVINIDKLGYGSNPANLKDLEDDPRYTFVKGDVADYELVKELVRKVDGVVHLAAESHVDRSISSPEIFLHSNVIGTYTLLESIRRENPEVRFVHVSTDEVYGDILKGSFTENDRLMPSSPYSATKAASDMLVLGWTRTYNLNASITRCTNNYGPYQFPEKLIPKTIIRASLGLKIPIYGTGKNVRDWLYVEDHVRAIELVLLKGESREIYNISAGEEKTNLEVVKIILRLMGKGEELIELVEDRPGHDLRYSLDSWKITRDLKWRPKYTFDEGIKKTIDWYLKNEWWWKPLVDERILHPTPWKLKW”, the protein production entry is on record as “not failed”.
